Experiments:
[1] = target: SA-NP (streptavidin core fused to the nucleoprotein NP of A/PARIS/2590/2009 (H1N1)) (Streptomyces avidinii | influenza A virus A/PARIS/2590/2009 (H1N1)); experiment: SDS-PAGE of unheated samples
[2] = target: SA-HA2 (streptavidin core fused to residues 76-130 of HA2 of A/PARIS/2590/2009 (H1N1)) (Streptomyces avidinii | influenza A virus A/PARIS/2590/2009 (H1N1)); experiment: SDS-PAGE of unheated samples

| Substance | stoichiometry N [1] | stoichiometry N [2] |
| --- | --- | --- |
| SA-NP (streptavidin core fused to the nucleoprotein NP of A/PARIS/2590/2009 (H1N1)) | 4 | – |
| SA-HA2 (streptavidin core fused to residues 76-130 of HA2 of A/PARIS/2590/2009 (H1N1)) | – | 4 |

Source: publication PMC5183740
